Assay results: US6037450

Biological target: human protein C (human) (UniProt P04070)
Experiment: protein C affinity column (protein C held on HPC4 mAb-AffiGel-10, 3 mM CaCl2, 0.6 mM MgCl2); EPCR antigen in the fractions measured by ELISA

Chain of UniProt P04070 (P04070 43-461): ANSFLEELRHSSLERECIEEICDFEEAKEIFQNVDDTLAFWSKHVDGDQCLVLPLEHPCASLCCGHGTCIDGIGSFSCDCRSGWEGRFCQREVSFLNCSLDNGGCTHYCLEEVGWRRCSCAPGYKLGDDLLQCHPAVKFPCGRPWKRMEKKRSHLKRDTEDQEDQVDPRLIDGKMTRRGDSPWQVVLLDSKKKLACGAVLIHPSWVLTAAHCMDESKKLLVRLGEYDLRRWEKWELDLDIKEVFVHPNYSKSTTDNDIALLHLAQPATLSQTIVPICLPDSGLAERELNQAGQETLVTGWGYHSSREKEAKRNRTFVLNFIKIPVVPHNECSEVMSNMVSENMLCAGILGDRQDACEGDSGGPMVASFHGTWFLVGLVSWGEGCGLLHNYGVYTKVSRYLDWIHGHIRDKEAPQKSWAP

percent of applied antigen bound: > 98%
B1: plasma EPCR (soluble endothelial cell protein C/activated protein C receptor purified from human citrated plasma) (receptor)
chain: SQDASDGLQRLHMLQISYFRDPYHVWYQGNASLGGHLTHVLEGPDTNTTIIQLQPLQEPESWARTQSGLQSYLLQFHGLVRLVHQERTLAFPLTIRCFLGCELPPEGSRAHVFFEVAVNGSSFVSFRPERALWQADTQVTSGVVTFTLQQLNAYNRTRYELREFLEDTCVQYVQKHISAENTKG
